Data set [1] deals with T1, His-HuD D (mouse, UniProt Q61701-10 1-371). Description: competition; competitor; EMSA: 6% native PAGE, 0.5x TBE, 4°C (binding buffer as in cited work); biotin pull-down: 5 mM Tris pH 7.5, 15 mM KCl, 5 mM MgCl2, 0.25 mM DTT, 10% glycerol, 20. The note with it: protein: recombinant, tags: His.
Data set [2] addresses T2, His-HuD A (mouse, UniProt Q61701 1-385). In words: competition; competitor against labeled Ins2L; EMSA: 6% native PAGE, 0.5x TBE, 4°C (binding buffer as in cited work); biotin pull-down: 5 mM Tris pH 7.5, 15 mM KCl, 5 mM MgCl2, 0.25 mM DTT, 10% glycerol, 20. The note with it: protein: recombinant, tags: His.
For a further data set, the target named is GST-HuD B (mouse, UniProt Q61701-4 1-380). Description: EMSA; EMSA: 6% native PAGE, 0.5x TBE, 4°C (binding buffer as in cited work); biotin pull-down: 5 mM Tris pH 7.5, 15 mM KCl, 5 mM MgCl2, 0.25 mM DTT, 10% glycerol, 20. The note with it: protein: recombinant; tags: GST; label: radiolabel (probe); m-fold predicted structure.
Sequence of GST-HuD B (Q61701 other isoform, or with tags, fused parts or gaps): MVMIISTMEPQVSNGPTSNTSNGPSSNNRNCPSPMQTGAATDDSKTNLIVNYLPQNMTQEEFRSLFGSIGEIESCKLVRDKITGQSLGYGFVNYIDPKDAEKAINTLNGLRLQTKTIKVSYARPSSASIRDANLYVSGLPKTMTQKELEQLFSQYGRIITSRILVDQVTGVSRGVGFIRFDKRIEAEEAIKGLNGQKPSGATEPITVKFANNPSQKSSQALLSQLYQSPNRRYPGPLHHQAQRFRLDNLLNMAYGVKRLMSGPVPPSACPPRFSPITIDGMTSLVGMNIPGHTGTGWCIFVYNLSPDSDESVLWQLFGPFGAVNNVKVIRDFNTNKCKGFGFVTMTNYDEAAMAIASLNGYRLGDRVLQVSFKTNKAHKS
The target of data set [3] is T2, His-HuD A. The data set is described as above. The note with it: protein: recombinant; tags: His; label: radiolabel (probe); m-fold predicted structure.
The next data set addresses His-HuD B (mouse, UniProt Q61701-4 1-380). The data set is described as above. The note with it: protein: recombinant; tags: His; label: radiolabel (probe); m-fold predicted structure.
Data set [4] addresses T1, His-HuD D. Described as above. The following applies: protein: recombinant; tags: His; label: radiolabel (probe); m-fold predicted structure.
For data set [5], the target named is T1, His-HuD D. Description: competition; competitor; similar to L at low excess, differential at high excess; EMSA: 6% native PAGE, 0.5x TBE, 4°C (binding buffer as in cited work); biotin pull-down: 5 mM Tris pH 7.5, 15 mM KCl, 5 mM MgCl2, 0.25 mM DTT, 10% glycerol, 20. The note with it: protein: recombinant; tags: His; m-fold predicted structure.
The target of data set [6] is T2, His-HuD A. In words: competition; competitor against labeled Ins2L; similar to L at low excess, differential at high excess; EMSA: 6% native PAGE, 0.5x TBE, 4°C (binding buffer as in cited work); biotin pull-down: 5 mM Tris pH 7.5, 15 mM KCl, 5 mM MgCl2, 0.25 mM DTT, 10% glycerol, 20. The note with it: protein: recombinant; tags: His; m-fold predicted structure.

T2 sequence (Q61701 whole entry): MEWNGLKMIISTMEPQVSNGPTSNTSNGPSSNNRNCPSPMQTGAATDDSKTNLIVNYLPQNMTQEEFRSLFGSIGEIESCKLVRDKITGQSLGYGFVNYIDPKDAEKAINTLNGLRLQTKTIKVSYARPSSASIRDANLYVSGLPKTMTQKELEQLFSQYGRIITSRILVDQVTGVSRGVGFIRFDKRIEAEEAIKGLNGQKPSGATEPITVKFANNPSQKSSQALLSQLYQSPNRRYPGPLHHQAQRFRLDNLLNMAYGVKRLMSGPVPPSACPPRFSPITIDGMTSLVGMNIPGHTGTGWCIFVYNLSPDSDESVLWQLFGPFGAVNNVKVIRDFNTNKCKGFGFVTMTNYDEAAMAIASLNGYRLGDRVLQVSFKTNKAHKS
T1 sequence (Q61701 other isoform, or with tags, fused parts or gaps): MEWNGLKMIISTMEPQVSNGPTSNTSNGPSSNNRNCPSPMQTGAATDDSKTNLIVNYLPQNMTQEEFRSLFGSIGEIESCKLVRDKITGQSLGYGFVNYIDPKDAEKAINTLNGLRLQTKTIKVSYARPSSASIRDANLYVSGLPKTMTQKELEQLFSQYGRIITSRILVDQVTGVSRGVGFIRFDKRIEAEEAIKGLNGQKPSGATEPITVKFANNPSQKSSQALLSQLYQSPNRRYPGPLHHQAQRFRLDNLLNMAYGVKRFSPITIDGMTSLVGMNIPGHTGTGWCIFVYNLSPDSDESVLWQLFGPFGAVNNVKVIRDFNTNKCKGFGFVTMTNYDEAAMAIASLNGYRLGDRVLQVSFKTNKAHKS

For the molecule GGGUACAAUCAAAAACCAUCAGCAA (ssRNA) [L2], the binding result with His-HuD D [1] (label: radiolabel (probe)) and with His-HuD A [2] (label: radiolabel (probe)) was “binds” throughout.

B1: Ins2L 5'UTR (L) (structured_RNA)
RNA: GGGAGCCCUAAGUGAUCCGCUACAAUCAAAAACCAUCAGCAAGCAGGAAGCCUAUCUUCCAGGUUAUUGUUUCAAC
For the molecule B1, the binding result with GST-HuD B is “no binding”; with His-HuD A [3] it was “binds”; with His-HuD B it was “no binding”; in the data set with His-HuD D [4], “binds”.

B2: Ins2S 5'UTR (S) (structured_RNA)
RNA: GGGAGCCCUAAGUGAUCCGCUACAAUCAAAAACCAUCAGCAAGCAGGAAGGUUAUUGUUUCAAC
Consider B2, for which the binding result with His-HuD D [5] and in the data set with His-HuD A [6] was “binds” throughout.
With GGGUCUUCCAGGUUAUUGUUUCAAC (ssRNA) [L4], the binding result in the data set with His-HuD D [1] and in the data set with His-HuD A [2] was “binds” throughout.
